T1: PUF4 RNA-binding domain (Saccharomyces cerevisiae, UniProt P25339 537-888)
T1 sequence: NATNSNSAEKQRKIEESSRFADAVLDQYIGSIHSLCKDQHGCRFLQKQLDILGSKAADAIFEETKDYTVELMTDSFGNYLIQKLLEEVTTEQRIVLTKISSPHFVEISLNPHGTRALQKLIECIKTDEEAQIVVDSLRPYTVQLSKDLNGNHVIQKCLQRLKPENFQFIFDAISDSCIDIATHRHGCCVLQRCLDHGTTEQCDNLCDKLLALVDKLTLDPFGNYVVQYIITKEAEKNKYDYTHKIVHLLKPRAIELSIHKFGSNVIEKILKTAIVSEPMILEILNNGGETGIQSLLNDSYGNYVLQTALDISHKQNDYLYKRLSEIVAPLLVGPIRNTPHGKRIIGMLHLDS

B1: Ie_S4_P4E.1_K4.1_C4.1_H4.1_[+2TT]_A4.1_F4.1_T4.1 (ssRNA)
RNA: UUUGACAACUGAUCGUUCUUUCUUGUUUAUAUUAUUCUUUCUCGAUCAGUUGUCUUU
B2: Ie_S4_P4E.1_K4.1_C4.1_H4.1_A4.1_[+5CC]_F4.1_T4.1 (ssRNA)
RNA: B1 RNA with U27A, A29C, U30C
B3: Ie_S4_P4E.1_K4.1_C4.1_H4.1_[+4TC]_A4.1_F4.1_T4.1 (ssRNA)
RNA: B1 RNA with U27A, A29C
B4: Ie_S4_P4E.1_K4.1_C4.1_H4.1_[+4CT]_A4.1_F4.1_T4.1 (ssRNA)
RNA: B1 RNA with U27A, U28C, A29U
B5: Ie_S4_P4E.1_K4.1_C4.1_H4.1_[+3CT]_A4.1_F4.1_T4.1 (ssRNA)
RNA: B1 RNA with U27C
B6: Ie_S4_P4E.1_K4.1_C4.1_H4.1_[+2CTC]_A4.1_F4.1_T4.1 (ssRNA)
RNA: UUUGACAACUGAUCGUUCUUUCUUGCUCUAUAUUAUUCUUUCUCGAUCAGUUGUCUUU
B7: Ie_S4_P4E.1_K4.1_C4.1_H4.1_[+3TCT]_A4.1_F4.1_T4.1 (ssRNA)
RNA: B6 RNA with C26U
B8: Ie_S4_P4E.1_K4.1_C4.1_H4.1_[+3TCC]_A4.1_F4.1_T4.1 (ssRNA)
RNA: B6 RNA with C26U, U29C
B9: Ie_S4_P4E.1_K4.1_C4.1_H4.1_A4.1_[+5TCC]_F4.1_T4.1 (ssRNA)
RNA: B6 RNA with C26U, U27A, C28U, A30C, U31C
B10: Ie_S4_P5E.1_K5.1_C5.1_H5.1_A5.1_[+6CT]_F5.1_T5.1 (ssRNA)
RNA: B6 RNA with C26U, U27A, C28U, A30C
B11: Ie_S4_P4E.1_K4.1_C4.1_H4.1_[+4CTC]_A4.1_F4.1_T4.1 (ssRNA)
RNA: B6 RNA with C26U, U27A, A30C
B12: Ie_S4_P4E.1_K4.1_C4.1_H4.1_A4.1_[+5TTT]_F4.1_T4.1 (ssRNA)
RNA: B6 RNA with C26U, U27A, C28U, A30U
B13: Ie_S4_P4E.1_K4.1_C4.1_H4.1_A4.1_[+5TTC]_F4.1_T4.1 (ssRNA)
RNA: B6 RNA with C26U, U27A, C28U, A30U, U31C
B14: Ie_S4_P5E.1_K5.1_C5.1_H5.1_A5.1_[+5CC]_F5.1_T5.1 (ssRNA)
RNA: B6 RNA with C26U, U27A, C28U, U29C, A30C
B15: Ie_S4_P4E.1_K4.1_C4.1_H4.1_[+3CCC]_A4.1_F4.1_T4.1 (ssRNA)
RNA: B6 RNA with C26U, U27C, U29C
B16: Ie_S4_P4E.1_K4.1_C4.1_H4.1_[+3TTT]_A4.1_F4.1_T4.1 (ssRNA)
RNA: B6 RNA with C26U, C28U
B17: Ie_S4_P4E.1_K4.1_C4.1_H4.1_[+2TCC]_A4.1_F4.1_T4.1 (ssRNA)
RNA: B6 RNA with C26U, U27C
B18: Ie_S4_P4E.1_K4.1_C4.1_H4.1_[+2CCTC]_A4.1_F4.1_T4.1 (ssRNA)
RNA: UUUGACAACUGAUCGUUCUUUCUUGCCUCUAUAUUAUUCUUUCUCGAUCAGUUGUCUUU
B19: Ie_S4_P4E.1_K4.1_C4.1_H4.1_[+4TCTC]_A4.1_F4.1_T4.1 (ssRNA)
RNA: B18 RNA with C26U, C27A, A31C
B20: Ie_S4_P4E.1_K4.1_C4.1_H4.1_A4.1_[+5TTCC]_F4.1_T4.1 (ssRNA)
RNA: B18 RNA with C26U, C27A, C29U, A31C, U32C
B21: Ie_S4_P4E.1_K4.1_C4.1_H4.1_[+3CCTC]_A4.1_F4.1_T4.1 (ssRNA)
RNA: B18 RNA with C26U, U28C, C29U, U30C
B22: Ie_S4_P5E.1_K5.1_C5.1_H5.1_A5.1_[+5CCC]_F5.1_T5.1 (ssRNA)
RNA: B18 RNA with C26U, C27A, U30C, A31C
B23: Ie_S4_P4E.1_K4.1_C4.1_H4.1_[+2TTCC]_A4.1_F4.1_T4.1 (ssRNA)
RNA: B18 RNA with C26U, C27U, U28C
B24: Ie_S4_P4E.1_K4.1_C4.1_H4.1_A4.1_[+5CCTC]_F4.1_T4.1 (ssRNA)
RNA: B18 RNA with C26U, C27A, U30C, A31U, U32C
B25: Ie_S4_P4E.1_K4.1_C4.1_H4.1_A4.1_[+5TCTC]_F4.1_T4.1 (ssRNA)
RNA: B18 RNA with C26U, C27A, C29U, U30C, A31U, U32C
B26: Ib_S2_P3E.1_K3.1_C3.1_H3.1_[G2C]_A3.1_[A6G]_F3.1_T3.1 (ssRNA)
RNA: UUUGAUUAAUAUGAUAUCGUUCUUUCUUCUAUGUAUUCUUUCUCGAUAUCAUAUUAAUCUUU
B27: Ib_S2_P3E.1_K3.1_C3.1_H3.1_[G2C]_A3.1_[A6C]_F3.1_T3.1 (ssRNA)
RNA: B26 RNA with G33C
B28: Ib_S2_P3E.1_K3.1_C3.1_H3.1_[G2T]_A3.1_[A6G]_F3.1_T3.1 (ssRNA)
RNA: B26 RNA with C29U
B29: Ib_S2_P3E.1_K3.1_C3.1_H3.1_[G2A]_A3.1_[A6G]_F3.1_T3.1 (ssRNA)
RNA: B26 RNA with C29A
B30: Ie_S4_P4E.1_K4.1_C4.1_H4.1_[+2CCTCT]_A4.1_F4.1_T4.1 (ssRNA)
RNA: UUUGACAACUGAUCGUUCUUUCUUGCCUCUUAUAUUAUUCUUUCUCGAUCAGUUGUCUUU
B31: Ie_S4_P4E.1_K4.1_C4.1_H4.1_[+3CCCTT]_A4.1_F4.1_T4.1 (ssRNA)
RNA: B30 RNA with C26U, U28C
B32: Ie_S4_P5E.1_K5.1_C5.1_H5.1_A5.1_[+5TCTC]_F5.1_T5.1 (ssRNA)
RNA: B30 RNA with C26U, C27A, C29U, U30C, A32C
B33: Ie_S4_P4E.1_K4.1_C4.1_H4.1_[+4CTCTC]_A4.1_F4.1_T4.1 (ssRNA)
RNA: B30 RNA with C26U, C27A, U28C, C29U, U30C, A32C
B34: Ie_S4_P4E.1_K4.1_C4.1_H4.1_A4.1_[+5CTCTC]_F4.1_T4.1 (ssRNA)
RNA: B30 RNA with C26U, C27A, U31C, A32U, U33C
B35: Ie_S4_P4E.1_K4.1_C4.1_H4.1_A4.1_[+5CCTCT]_F4.1_T4.1 (ssRNA)
RNA: B30 RNA with C26U, C27A, U30C, A32C
B36: Ie_S4_P4E.1_K4.1_C4.1_H4.1_[+3TTCCT]_A4.1_F4.1_T4.1 (ssRNA)
RNA: B30 RNA with C26U, C27U, U30C
B37: Ie_S4_P4E.1_K4.1_C4.1_H4.1_[+4T]_A4.1_F4.1_T4.1 (ssRNA)
RNA: UUUGACAACUGAUCGUUCUUUCUUGUAUUAUUAUUCUUUCUCGAUCAGUUGUCUUU

Residue numbers refer to the chain shown, from its start. Numbers in names are those of the source.

In the series the target is T1, PUF4 RNA-binding domain. The experiment in a line: Mg; RNA-MaP; 20 mM Na-HEPES pH 7.4, 30 mM KOAc, 0.75 mM MgCl2, 0.1% Tween-20, 5% glycerol, 0.1 mg/mL BSA, 2 mM DTT; 25 C; 0.0125-409.6 nM protein. Particulars: tags: N-His6-TEV cleaved; C-SNAP kept, Cy3B-labelled; label: tethered on chip by stalled RNA polymerase.
In turn, B1 came in with a Kd of 0.0168 µM. On to B2, for which binding was characterised by a dissociation constant (Kd) of 0.0135 µM. For B3, the Kd came to 0.00667 µM. With B4, binding was put at a Kd of 0.00423 µM. For the molecule B5, binding was put at a Kd of 0.0312 µM. As to B6, binding was characterised by a dissociation constant (Kd) of 0.108 µM. Then B7, with 0.00636 µM; and B8, with 0.00768 µM; and B9, with 0.0341 µM. In the case of B10 it was 0.00221 µM; in that of B11, 0.00144 µM.

B12: the Kd was determined as 0.00172 µM.

Take B13: binding was put at a Kd of 0.0313 µM. In turn, B14 returned a Kd of 0.00327 µM. Molecule B15 showed a Kd of 0.015 µM. Then B16, with 0.0127 µM. In the case of B17 it was 0.00871 µM; in that of B18, 0.105 µM; in that of B19, 0.00478 µM. In the case of B20 it was 0.054 µM; in that of B21, 0.0661 µM. B22: the Kd turned out to be 0.00789 µM. In the case of B23 it was 0.0239 µM.

Molecule B24 had a Kd of 0.0433 µM.

The molecule B25 showed a Kd of 0.0358 µM. Turning to B26, the Kd came out at 0.0874 µM. For the molecule B27, the Kd was over 2.3 µM.

B28 returned a Kd of 0.189 µM. Turning to B29, the Kd was determined as 0.0762 µM. Then B30, with 0.118 µM; and B31, with 0.0516 µM. In the case of B32 it was 0.00969 µM; in that of B33, 0.00667 µM.

In turn, B34 had a Kd of 0.0428 µM. As for B35, the Kd was 0.01 µM. Then B36, with 0.0227 µM.

B37 returned a Kd of 0.00434 µM.

Usually Kd stands for the free concentration of one partner at which half of the binding sites on the other are occupied at equilibrium, for simple one-to-one binding.
